Measurements reported in patent publication US20120156198A1 (Hoffmann-La Roche, published 2012).

Key:
Assay in all cases: ELISA, hFc fusion protein captured on anti-human Fc
[1] = target: T1, rhIL-15R/hFc (R&D Systems, Cat. No. 147-IR) (human, UniProt Q13261 31-205)
T1 construct: Bought; not shown: human Fc (hFc) of the commercial protein
Procedure: (§1) The test was performed on 384-well microtiter plates (MaxiSorp™, Thermo Scientific Nunc, DK, Cat. No. 464718) at RT. After each incubation step, plates were washed 3 times with PBST. At the beginning, plates were coated with 0.5 μg/ml goat anti-human IgG Fc fragment (Jackson 1 mm. Res., US, Cat. No. 109-006-170) for at least 2 hours (h). Thereafter the wells were blocked with PBS supplemented with 0.2% Tween®-20 and 2% BSA (Roche Diagnostics GmbH, DE) for 1 h. 0.2 μg/ml of recombinant human IL-18Rα-Fc fusion protein (R&D Systems, UK, Cat. No. 816-LR) was captured on plate for 1 h. For testing the binding of antibodies to other proteins of the IL-1 receptor family 0.2 μg/ml of the following recombinant human proteins conjugated to human Fc (hFc) were captured: [0194] rhIL-1RI/hFc (R&D Systems, UK, Cat. No. 269-1R) [0195] rhIL-1sRII/hFc (R&D Systems, UK, Cat. No. 263-2R) [0196] rhIL-1R3/hFc (R&D Systems, UK, Cat. No. 676-CP) [0197] rhIL-2Rα/hFc (R&D Systems, UK, Cat. No. 1020-RL) [0198] rhIL-7Rα/hFc (R&D Systems, UK, Cat. No. 306-IR) [0199] rhIL-15R/hFc (R&D Systems, UK, Cat. No. 147-IR) [0200] rhST-2/hFc (R&D Systems, UK, Cat. No. 523-ST)
(§2) After washing the plate, dilutions of purified antibodies in PBS with 0.05% BSA and 0.2% Tween®-20 were incubated with the receptor proteins for 1 h. Binding of antibodies was detected with 1:2000 diluted horseradish peroxidase (HRP)-conjugates of anti-mouse IgG (GE Healthcare, UK, Cat. No. NA9310V). After 1 h the plates were washed 6 times with PBST and developed with freshly prepared BM Blue® POD substrate solution (BM Blue®: 3,3″-5,5″-Tetramethylbenzidine, Roche Diagnostics GmbH, DE, Cat. No. 11484281001) for 30 minutes at RT. Absorbance was measured at 370 nm. The values were corrected for the control without antibody.

[2] = target: T2, recombinant human IL-18Rα Fc chimera (R&D Systems, Cat. No. 816-LR) (human, UniProt Q13478 19-329)
T2 construct: Bought protein; also called hIL-18Rα (hFc-chimera R&D-Systems 816-LR); recombinant human IL-18Rα-Fc fusion protein; not shown: human Fc of the commercial chimera
T2 sequence: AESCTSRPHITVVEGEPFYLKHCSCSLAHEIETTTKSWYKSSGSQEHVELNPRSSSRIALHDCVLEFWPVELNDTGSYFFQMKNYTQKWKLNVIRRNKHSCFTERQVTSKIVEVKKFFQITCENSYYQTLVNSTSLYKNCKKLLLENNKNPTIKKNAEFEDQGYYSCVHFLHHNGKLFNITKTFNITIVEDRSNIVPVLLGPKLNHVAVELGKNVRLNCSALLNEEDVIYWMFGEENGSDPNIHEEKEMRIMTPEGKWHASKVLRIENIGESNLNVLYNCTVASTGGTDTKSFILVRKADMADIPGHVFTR
Procedure: as §1, §2

[3] = target: T3, rhIL-1RI/hFc (R&D Systems, Cat. No. 269-1R) (human, UniProt P14778 18-332)
T3 construct: Bought; not shown: human Fc (hFc) of the commercial protein
T3 sequence (looked up): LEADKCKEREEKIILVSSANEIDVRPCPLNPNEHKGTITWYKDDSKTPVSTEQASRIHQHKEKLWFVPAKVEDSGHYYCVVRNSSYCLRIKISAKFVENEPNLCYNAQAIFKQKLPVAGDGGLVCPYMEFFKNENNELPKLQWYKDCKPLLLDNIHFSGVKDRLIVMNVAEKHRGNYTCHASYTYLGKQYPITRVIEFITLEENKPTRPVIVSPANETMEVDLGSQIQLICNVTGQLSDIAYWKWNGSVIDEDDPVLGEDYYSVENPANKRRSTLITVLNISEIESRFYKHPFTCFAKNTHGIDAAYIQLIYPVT
Procedure: as §1, §2

T1 sequence (Q13261 31-205): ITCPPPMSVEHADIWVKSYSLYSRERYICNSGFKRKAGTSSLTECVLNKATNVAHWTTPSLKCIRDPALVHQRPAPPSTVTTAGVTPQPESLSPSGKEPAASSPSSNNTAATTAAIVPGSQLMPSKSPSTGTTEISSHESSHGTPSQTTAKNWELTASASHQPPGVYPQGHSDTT

Binder | absorbance at 370 nm (corrected for the control without antibody) [1] | absorbance at 370 nm (corrected for the control without antibody) [2] | absorbance at 370 nm (corrected for the control without antibody) [3]
Mab 1G12 (antibody, V domains shown, Monoclonal antibody from immunized NMRI mice; detected with anti-mouse IgG1-PE / anti-mouse IgG; also called F20.1G12; monoclonal antibody 1G12) VH: QVQLQQPGAELVKPGASVRMSCKTSDYTFTSNWMHWVKQRPGQGLEWIGTIDPSDSYTYYNQKFKGRATLTVDTSSSTAYMQLSSLTSEDSAVYYCTTSGDYDADRYFDVWGAGTTVTVSS VL: DIVLTQSPASLGVSLGQRATISCRASKSVSTSGDSYMHWYQQKPGQSPKLLIYLASNLESGVPARFSGSGSGTDFTLNIHPVEEEDAATYYCQQSRELPLSFGAGTKLELK | 0.04 | 2.43 | 0.01
Mab 2D11 (antibody, V domains shown, Monoclonal antibody from immunized NMRI mice; detected with anti-mouse IgG1-PE / anti-mouse IgG; also called F20.2D11) VH: QVQLQQPGAELVKPGASVKMSCKASDYTFTSNWMHWVKQRPGQGLEWIGTIDPSDSYTYYNQKFKGKATLTVDTSSSTAYMHLSSLTSEDSAVYYCTTSGDYDADRYFDVWGAGTTVTVSS VL: DIVLTQSPASLGVSLGQRATISCRASKSVSTSGDSYMHWYQQKPGQSPKLLIYLASNLESGVPARFSGSGSGTDFTLNIHPVEEEDAATYYCQQSRELPLSFGAGTKLELK | 0.19 | 2.56 | 0.02
